Blank lines part the entries; values can stand above or below the binder they belong to.
Experiments:
[1] = biological target: T1, recombinant human CTLA4 protein with human IgG1 Fc tag at the C-terminus (Acro biosystems, Cat#CT4-H5255) (human, UniProt P16410 37-162); test: cell-based or functional assay
T1 sequence (looked up): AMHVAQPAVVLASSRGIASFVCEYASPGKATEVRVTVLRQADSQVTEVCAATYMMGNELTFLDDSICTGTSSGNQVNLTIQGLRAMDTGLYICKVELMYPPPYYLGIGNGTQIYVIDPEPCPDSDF

[2] = biological target: T2, recombinant human CTLA4-his protein (Acro biosystems, Cat#CT4-H5229) (human, UniProt P16410 37-162); test: SPR, Biacore T200; antibody captured, CTLA4-his as analyte
T2 construct: bought recombinant protein; not shown: his tag
T2 sequence (looked up): T1 sequence (looked up)
Protocol: (§1) Un-reacted moieties on the biosensor surface were blocked with ethanolamine. […] The antigen-antibody association kinetics was followed for 2 minutes and the dissociation kinetics was followed for 10 minutes. The association and dissociation curves were fit to a 1:1 Langmuir binding model using BIAcore evaluation software.

[3] = biological target: T3, cynomolgus monkey CTLA4-his protein (Acro biosystems, Cat#CT4-C5227) (cynomolgus monkey, UniProt G7PL88 36-161); test: as above
T3 construct: bought recombinant protein; also called Cynomolgus CTLA4-his; not shown: his tag
T3 sequence: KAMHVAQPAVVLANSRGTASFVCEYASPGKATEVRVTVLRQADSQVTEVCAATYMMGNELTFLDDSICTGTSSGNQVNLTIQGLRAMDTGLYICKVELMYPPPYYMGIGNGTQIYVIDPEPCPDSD
Protocol: as §1

[4] = biological target: T1, recombinant human CTLA4 protein with …; test: capture ELISA: antibody captured on anti-mouse IgG F(ab')2 coated plate, biotin human CTLA4-Fc 26 ng/ml, streptavidin-HRP, OD(450-630)
Protocol: (§2) Plates were washed once with wash buffer (PBS+0.05% v/v Tween-20, PBST) and then blocked with 200 µl/well blocking buffer (PBST with 5% w/v non-fatty milk) for 2 hours at 37° C. […] After a final wash, plates were incubated with 100 µl/well substrate TMB (Innoreagents, Cat#TMB-S-002). The reaction was stopped in 15 minutes at room temperature with 50 µl/well 1M H₂SO₄, and the absorbance of the each well was read on a microplate reader using dual wavelength mode with 450 nm for TMB and 630 nm as the reference wavelength, then the OD (450-630) values were plotted against antibody concentration. Data was analyzed using Graphpad Prism software and EC₅₀ values were reported.

[5] = biological target: T1, recombinant human CTLA4 protein with …; test: cell based blocking FACS: antibody pre-mixed with human CTLA4-Fc, added to Daudi cells; blocked ligands: cell surface CD80/CD86
[6] = biological target: T1, recombinant human CTLA4 protein with …; test: cell based blocking FACS: antibody pre-mixed with human CTLA4-Fc (1 ug/mL), added to Daudi cells; blocked ligands: cell surface CD80/CD86
Protocol: Daudi cells were harvested from cell culture flasks at the log phase, washed twice and re-suspended in PBS containing 2% v/v Fetal Bovine Serum (FACS buffer). […] Cells were washed twice and re-suspended in FACS buffer. Fluorescence was measured using a Becton Dickinson FACS Canto II-HTS equipment. Data was analyzed using Graphpad Prism software and IC₅₀ values were reported.

[7] = biological target: T1, recombinant human CTLA4 protein with …; test: competitive ELISA: antibody pre-mixed with biotin human CTLA4-Fc (65 ng/ml), added to plate coated with the benchmark; competitor: coated Yervoy
Protocol: Plates were washed once with wash buffer, blocked with 200 µl PBST with 5% w/v non-fatty milk, incubated for 2 hours at 37° C., and washed 4 times.
After incubation at 37° C. for 40 minutes, plates were washed 4 times again using wash buffer. Then the plates were added and incubated with 100 µl/well streptavidin conjugated HRP (1:10000 dilution in PBST, Jackson Immuno Research, Cat#016-030-084, 100 µl/well) for 40 minutes at 37° C. Plates were finally washed using wash buffer. Finally, TMB was added and the reaction was stopped using 1M H₂SO₄, and the absorbance of the each well was read on a microplate reader using dual wavelength mode with 450 nm for TMB and 630 nm as the reference wavelength, then the OD (450-630) values were plotted against antibody concentration. Data was analyzed using Graphpad Prism software and IC₅₀ values were reported.

[8] = biological target: T1, recombinant human CTLA4 protein with …; test: capture ELISA: antibody captured on coated plate (anti-human IgG Fc for the chimeric antibodies), biotin human CTLA4-Fc, streptavidin-HRP, OD(450-630)
Protocol: as §2
For the capture ELISA, AffiniPure Goat Anti-Human IgG, Fcy fragment specific (Jackson Immuno Research, Cat#109-005-008) was used instead of AffiniPure Goat Anti-Mouse IgG, F(ab′)₂ fragment specific, 100 µl/well.

[9] = biological target: T2, recombinant human CTLA4-his protein …; test: BLI, Octet RED96; antibody on AHC sensor, CTLA4-his as analyte
Protocol: Briefly, AHC biosensors (anti-human IgG Fc capture, from ForteBio) were presoaked with 10 mM glycine (pH 1.5) for 3 seconds, and then dipped in a well with running buffer (0.5% w/v BSA in PBST) for 3 seconds, the soaking and dipping steps were repeated for three times. […] A new baseline was run for 180 seconds in another well with running buffer. […] Finally, sensors were presoaked with 10 mM glycine (pH 1.5) for 3 seconds, and then were dipped in a well with running buffer for 3 seconds, the soaking and dipping steps repeated for three times. The association and dissociation curves were fit to a 1:1 Langmuir binding model using ForteBio Data Analysis 8.1.

B1: mouse anti-CTLA4 monoclonal antibody D1B6 (antibody, V domains shown)
VH: EVQLQQSGPELVKPGASVKLSCKASGNTFTTYVLNWVKQKPGQGLEWIGYFNPYNDGIKYNEKFKGKATLTSDKSSNTAYMELSSLTSEDSAVYYCARFEGGGYAMDYWGQGTSVTVSS
VL: DIVLTQSPASLAVSLGQRATISCRASQSVGTSRNTYIHWYQQKLGQPPKLLIKYASDLESGVPARFSGSGSGTDFTLNIHPVEEEDTATYYCQHSWEIPYTFGGGTKLEIK
notes: mouse mAb purified from hybridoma supernatant
EC50 of IL-2 release (GS-J1 T cells + GS-C1/CD80 cells + human CTLA4-Fc, IL-2 HTRF) [1]: 36.6 nM
Kd [2]: 7.45 nM
koff [2]: 0.000487 s⁻¹
kon [2]: 65400 M⁻¹ s⁻¹
Kd [3]: 4.12 nM
koff [3]: 0.000787 s⁻¹
kon [3]: 191000 M⁻¹ s⁻¹
EC50 [4]: 0.116 nM
IC50 [5]: 8.09 nM
IC50 [6]: ~4.6 nM
IC50 [7]: 0.618 nM
EC50 [8]: 0.418 nM

B4: chimeric C1G4 anti-CTLA4 antibody (antibody, human IgG4 S228P, kappa, V domains shown)
VH: EVKLDETGGGLVQPGRPIKLSCVASGFTFSDNWMNWVRQSPEKGLEWVAQIRNKPYNYETYYSDSVKGRFTISRDDSKSSVYLQMNNLRTKDMGIYYCTGGFTYWGQGTLVTVSA
VL: DIQMTQSPPSLSASVGETVTITCGASENIYGGLNWYQRKQGKSPQLLIYGATNLADGMSSRFSGSGSGRQYSLKISRLHPDDVATYYCQNVLNTPYTFGGGTKLEIKR
notes: mouse variable domains on human IgG4/kappa, made in 293F cells
Kd [9]: 1 nM
koff [9]: 0.000679 s⁻¹
kon [9]: 676000 M⁻¹ s⁻¹
IC50 [5]: 10.2 nM
EC50 [8]: 0.869 nM

B5: mouse anti-CTLA4 monoclonal antibody D1H4 (antibody, V domains shown)
VH: EVQLQQSGPVLVKPGASVKMSCKASGYTFTDYYMNWVKQSHGKSLEWIGAINPDHGGSSYNQKFKGKATLTVDKSSSTAYMELNSLTSEDSAVYYCARDGSIHYVMDDWGQGTSVTVSS
VL: DIVMSQSPSSLTVSAGDKVTMSCKSSQSLLHSGNQKNYLAWYQQKPWQPPKLLIYGASTRESGVPDRFTGSGSGTDFTLTISSVQAEDLAVYYCQNDYGYPYTFGGGTKLEIK
notes: as for B1
EC50 of IL-2 release (GS-J1 T cells + GS-C1/CD80 cells + human CTLA4-Fc, IL-2 HTRF) [1]: ~40.8 nM
Kd [2]: 0.925 nM
koff [2]: 0.000321 s⁻¹
kon [2]: 346000 M⁻¹ s⁻¹
Kd [3]: 0.727 nM
koff [3]: 0.000422 s⁻¹
kon [3]: 580000 M⁻¹ s⁻¹
EC50 [4]: 0.108 nM
IC50 [6]: ~8.85 nM
IC50 (read off the curve) [7]: ~2 nM

Continued by falling IC50 [5], values first:

EC50 of IL-2 release (GS-J1 T cells + GS-C1/CD80 cells + human CTLA4-Fc, IL-2 HTRF) [1]: 35.3 nM
Kd [2]: 1.77 nM
koff [2]: 0.000513 s⁻¹
kon [2]: 290000 M⁻¹ s⁻¹
Kd [3]: 1.71 nM
koff [3]: 0.00077 s⁻¹
kon [3]: 451000 M⁻¹ s⁻¹
EC50 [4]: 0.134 nM
IC50 [5]: 10.6 nM
IC50 [6]: 11 nM
IC50 [7]: 0.865 nM
EC50 [8]: 0.832 nM
B3: mouse anti-CTLA4 monoclonal antibody C1G4 (antibody, V domains shown)
VH: B4 VH
VL: DIQMTQSPPSLSASVGETVTITCGASENIYGGLNWYQRKQGKSPQLLIYGATNLADGMSSRFSGSGSGRQYSLKISRLHPDDVATYYCQNVLNTPYTFGGGTKLEIK
notes: as for B1

Kd [9]: 148 nM
koff [9]: 0.00076 s⁻¹
kon [9]: 5140 M⁻¹ s⁻¹
IC50 [5]: ~6.6 nM
EC50 [8]: 0.514 nM
B2: chimeric D1B6 anti-CTLA4 antibody (antibody, human IgG4 S228P, kappa, V domains shown)
VH: B1 VH
VL: DIVLTQSPASLAVSLGQRATISCRASQSVGTSRNTYIHWYQQKLGQPPKLLIKYASDLESGVPARFSGSGSGTDFTLNIHPVEEEDTATYYCQHSWEIPYTFGGGTKLEIKR
notes: as for B4
